Results: patent US20230235054A1 (BIOATLA, published 2023)
Where a chain is given by its changes, count along the chain named. Values belong to the binder of their own block, whether it stands above or below them.

Tests used:
[1] = biological target: T1, recombinant human Nectin4 antigen (human, UniProt Q96NY8 32-349); assay: ELISA, coated antigen, PSB pH 7.4
T1 construct: construct not described
T1 sequence (looked up): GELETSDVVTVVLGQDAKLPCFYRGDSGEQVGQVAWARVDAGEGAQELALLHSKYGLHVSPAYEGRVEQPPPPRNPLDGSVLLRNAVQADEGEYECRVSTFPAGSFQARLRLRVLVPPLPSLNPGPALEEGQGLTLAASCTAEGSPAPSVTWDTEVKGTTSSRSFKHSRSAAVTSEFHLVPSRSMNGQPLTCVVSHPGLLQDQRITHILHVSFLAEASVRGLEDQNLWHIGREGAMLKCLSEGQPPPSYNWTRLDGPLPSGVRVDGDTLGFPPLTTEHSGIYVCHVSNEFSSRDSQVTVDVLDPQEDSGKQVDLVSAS
Method: 1) Coat ELISA plates with 100 μL of 1 μg/mL recombinant human Nectin4 antigen or cynoNectin4 antigen in carbonate-bicarbonate coating buffer. […] 2) Cover plates with sealing film and incubate overnight at 4° C. [0444] 3) Decant plates and tap out residual liquid on a stack of paper towels. [0445] 4) Wash wells twice by dispensing 200 μL of pH 6.0 or pH 7.4 ELISA incubation buffer to the wells and completely aspirate the contents. [0446] 5) Add 200 μL of pH 6.0 or pH 7.4 ELISA incubation buffer to the wells. Cover with sealing film and place the plate onto a plate shaker set to 50 rpm for 60 minutes at room temperature. [0447] 6) Decant plates and tap out residual liquid on a stack of paper towels. […] 7) Serially dilute test articles in 3-fold dilutions starting at 3000 ng/mL in pH 6.0 or pH 7.4 ELISA incubation buffer. […] 8) Add 100 μL/well of diluted test articles to the plates [0450] 9) Cover with sealing film and place the plates onto a plate shaker set to 50 rpm for 60 minutes at room temperature. [0451] 10) Decant plates and tap out residual liquid on a stack of paper towels. [0452] 11) Wash wells three times by dispensing 200 μL of pH 6.0 or pH 7.4 ELISA wash buffer to the wells and completely aspirate the contents. […] 12) Dilute the HRP secondary antibody at 1:2500 in pH 6.0 or pH 7.4 ELISA incubation buffer. [0454] […]

[2] = biological target: T2, cynoNectin4-mFc (cyno, UniProt A0A2K5WES1 32-349); assay: SPR, cynoNectin4-mFc immobilized, pH 6.5
T2 construct: Immobilized on the SPR chip; also called cyanoNectin4; not shown: mFc (mouse Fc)
T2 sequence: T1 sequence (looked up) with V39A, I230V
Method: (§1) Binding kinetics of anti-Nectin4 antibodies were measured by surface plasmon resonance using a SPR2/4 instrument (Sierra Sensors, Hamburg, Germany) and flat amine sensor chips. The SPR sensor contained four flow cells (FC1-FC4), each of which was addressed individually or in groups. huNectin4-His was immobilized in FC2, and cynoNectin4-mFc in FC4. No protein was immobilized in FC1 and FC3 which were used as control surfaces for FC2 and FC4, respectively.
(§2) All injections were done at a flow rate of 25 μL/min at 25° C. The sensor surface was activated with 1-ethyl-3-(3-dimethylaminopropyl)-carbodiimide (EDC) and N-hydroxysuccinimide (NHS) (200 mM/50 mM) for 480 seconds. HuNectin4-His (2 μg/mL in 10 mM NaAc, pH4.5) was injected for 480s and the surface was inactivated by injecting 1M ethanolamine-HCl for 480s. CynoNectin4 was immobilized using the same conditions as described for huNectin4-His, except that the cynoNectin4 was diluted into 10 mM NaAc buffer having pH 5.0. The control surface was activated and deactivated using the same conditions, but without injecting protein. PBST buffer (PBS pH 7.4 with 0.05% TWEEN20™) was used as running buffer for the surface preparation. The running solution was switched to PBST with 30 mM sodium bicarbonate with the pH adjusted as indicated in the figures before the analyte injections. The instrument was equilibrated with the running solution for one hour before the first analyte injection.
(§3) The off-rate was measured for 360s. The chip surface was regenerated after each cycle of interaction analysis by injecting 6 μL of 10 mM glycine (pH 2.0). Flow cells 1 and 3 without immobilized protein were used as control surfaces for reference subtraction.

[3] = biological target: T3, cyno Nectin-4 on cells (cyno, UniProt A0A2K5WES1 32-510); assay: FACS, HEK293 cells expressing cyno Nectin-4
T3 construct: whole, on cells; also called HEK293 cells expressing cyno Nectin-4; cyno Nectin-4 cells
T3 sequence: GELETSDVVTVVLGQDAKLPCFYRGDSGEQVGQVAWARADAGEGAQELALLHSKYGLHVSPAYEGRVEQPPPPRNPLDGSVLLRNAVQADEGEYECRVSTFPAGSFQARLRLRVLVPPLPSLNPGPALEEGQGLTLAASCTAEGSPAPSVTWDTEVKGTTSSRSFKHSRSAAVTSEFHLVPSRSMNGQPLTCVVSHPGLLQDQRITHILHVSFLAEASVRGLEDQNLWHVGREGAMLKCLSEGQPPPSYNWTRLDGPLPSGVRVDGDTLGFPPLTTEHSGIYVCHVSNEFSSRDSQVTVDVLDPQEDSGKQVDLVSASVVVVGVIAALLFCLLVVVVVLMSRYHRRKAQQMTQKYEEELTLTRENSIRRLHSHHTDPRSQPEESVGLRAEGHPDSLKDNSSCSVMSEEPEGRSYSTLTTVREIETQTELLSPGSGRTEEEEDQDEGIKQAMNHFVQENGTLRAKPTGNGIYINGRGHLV

[4] = biological target: T4, huNectin4-His (human, UniProt Q96NY8 32-349); assay: SPR, huNectin4-His immobilized, pH 7.4; pH 7.4
T4 construct: Immobilized on the SPR chip; also called humanNectin4; human Nectin4; not shown: His tag
T4 sequence (looked up): T1 sequence (looked up)
Method: as §1, §2, §3

B1: BAP-143-wildtype (antibody, V domains shown)
VH: EVQLVESGGGLVQPGGSLRLSCAASGFTFSSYNMNWVRQAPGKGLEWVSYISSSSSTIYYADSVKGRFTISRDNAKNSLSLQMNSLRDEDTAVYYCARAYYYGMDVWGQGTTVTVSS
VL: DIQMTQSPSSVSASVGDRVTITCRASQGISGWLAWYQQKPGKAPKFLIYAASTLQSGVPSRFSGSGSGTDFTLTISSLQPEDFATYYCQQANSFPPTFGGGTKVEIK
notes: 150 kDa used in SPR; also called BAP143-00-00; benchmark (BM)
EC50 [1]: 0.0216 µg/mL
Kd [2]: 0.209 nM

B2: BAP-143-06-24-16 (antibody, V domains shown)
VH: EVQLVQSGAEVKKPGATVKISCKVSGFTFSSYNMNWIRQSPSRGLEWLGYISSSSSTIYYADSVKGRFTISRDNSKNTLYLQMNSLRAEDTAVYYCARAYYYGDDVWGQGTLVTVSS
VL: B1 VL with R24H
notes: Used as a conjugate with a linker payload (CAB ADC)
Ratio (pH 7.4/6.0) of EC50 [3]: 1.4
EC50 [1]: 0.133 µg/mL
Kd [2]: 0.0534 nM
koff [2]: 8.99e-05 s⁻¹
kon [2]: 1.68e+06 M⁻¹ s⁻¹

B3: BAP-143-06-33-03 (antibody, V domains shown)
VH: QVQLVQSGAEVKKPGASVKVSCKASGFTFSSYNMNWVRQARGQRLEWIGYISSSSSTIYYADSVKGRFTISRDNSKNTLYLQMNSLRAEDTAVYYCARAYYYGMDKWGQGTLVTVSS
VL: B1 VL with F94E
notes: as for B2
Ratio (pH 7.4/6.0) of EC50 [3]: 2.7

B4: BAP-143-00-01 (antibody, V domains shown)
VH: B1 VH
VL: B1 VL with L33E
notes: as for B2
Ratio (pH 7.4/6.0) of EC50 [3]: 2
Kd [2]: 1.88 nM
koff [2]: 0.000859 s⁻¹
kon [2]: 457000 M⁻¹ s⁻¹

B5: BAP-143-00-02 (antibody, V domains shown)
VH: B1 VH
VL: B1 VL with F94E
notes: as for B2
Kd [4]: 9.76 nM
koff [4]: 0.00478 s⁻¹
kon [4]: 490000 M⁻¹ s⁻¹

Now from value to binder:

Ratio (pH 7.4/6.0) of EC50 [3]: 1.5
Kd [2]: 0.163 nM
koff [2]: 0.00026 s⁻¹
kon [2]: 1.6e+06 M⁻¹ s⁻¹
B6: BAP-143-06-33-16 (antibody, V domains shown)
VH: B2 VH
VL: B1 VL with L33E
notes: as for B2

Ratio (pH 7.4/6.0) of EC50 [3]: 1.8
Kd [2]: 1.6 nM
koff [2]: 0.000876 s⁻¹
kon [2]: 549000 M⁻¹ s⁻¹
B7: BAP-143-07-03-12 (antibody, V domains shown)
VH: B1 VH with V106K
VL: B1 VL with L33E
notes: as for B2
